Laboratory results published in patent publication US20210395777.

Target: AAV capsid expressed by the standard BEV1 infection and the v-cath deleted BEV2 infection in Sf9 cells

B1: V-CATH protease (Viral Cathepsin), encoded by the baculovirus v-cath gene of the BEV (protein)
chain: PLEFDWRRLNKVTSVKNQGMCGACWAFATLASLESQFAIKHNQLINLSEQQMIDCDFVDAGCNGGLLHTAFEAIIKMGGVQLESDYPYEADNNNCRMNSNKFLVQVKDCYRYITVYEEKLKDLLRLVGPIPMAIDAADIVNYKQGIIKYCFNSGLNHAVLLVGYGVENNIPYWTFKNTWGTDWGEDGFFRVQQNINACGMRNELASTAVIY
degradation products of the AAV capsid on Western immunoblot (BEV1 against v-cath deleted BEV2): Deletion of v-cath eliminated the degradation products.
